Assays:
[1] = biological target: T1, human folate receptor alpha expressed on cells (transfected HEK293T, HeLa, MCF7, MDA-MB-231) (human, UniProt P15328 25-234); experiment: flow cytometry on HEK293T cells overexpressing human FOLR1, His tag detection, PE MFI, non-linear fit
T1 construct: HEK293T transiently transfected with human FOLR1; also called native human FRα; cell-expressed human FOLR1
Experimental: (§1) Data were normalized and technical replicates were plotted as mean±SD. Data were fitted by non-linear regression and the half-maximal effective concentration ^{∘}EC50) was calculated using GraphPad Prism 9 software. ^{∘}FIG. 1C and FIG. 1D) Binding affinity determination of anti-FOLR1 VHHs for native FOLR1. Mouse ^{∘}FIG. 1C) or human FOLR1 FIG. 1D) was overexpressed on HEK293T cells and binding of the anti-FOLR1 VHHs was assessed using flow cytometry. The mean fluorescence intensity ^{∘}MFI) of the phycoerythrin signal was plotted for each VHH concentration. Data were fitted by non-linear regression using GraphPad Prism 9 software. ^{∘}FIG. 1E) Determination of the competition of representative family members with folic acid ^{∘}FA) using ELISA. Mouse FOLR1 was coated on the plate and was pre-incubated with or without 100 μM FA before adding the VHHs. Data were fitted by non-linear regression using GraphPad Prism 9 software.

[2] = biological target: T2, human FRβ with R135 replaced by glutamine (human, UniProt P14207 17-230); experiment: flow cytometry on transiently transfected HEK293T cells, 200 nM VHH, mouse anti-His then anti-mouse-PE (B575-A)
T2 construct: The entry is the mutant itself; also called hFRβ R135Q
Excerpt: FIGS. 2A-2C illustrates the epitope mapping of anti-FOLR1 VHHs on human FOLR1/2 chimeras. ^{∘}FIG. 2A) To narrow down the epitope of the anti-folate receptor alpha ^{∘}FOLR1) VHHs, chimeric constructs were generated by exchanging a sequence block in human FOLR1 ^{∘}hFOLR1) by the corresponding human folate receptor beta ^{∘}hFOLR2) sequence, since the VHHs are able to bind both hFOLR1 and mouse FOLR1 ^{∘}mFOLR1; SEQ ID No.97), but not hFOLR2. These regions are indicated by the green arrows. Chimera 1 SEQ ID No. 67) and 7 ^{∘}Ch7; SEQ ID No. 73) also contain an additional residue change at a separate location. […] HEK293T cells were transfected with hFOLR1, hFOLR2, one of the hFOLR1/2 chimeric constructs ^{∘}FIG. 2B) or single residue mutants ^{∘}FIG. 2C). Binding of VHHs 2HFO19, 2HFO42, 3MFR60, and a mouse anti-FOLR1 monoclonal antibody ^{∘}mAb) was detected using a mouse anti-His tag antibody for the VHHs followed by an anti-mouse-phycoerythrin antibody. All VHHs were tested at a concentration of 200 nM and untransfected cells were used as a negative control. The colors used for the VHHs represent the different CDR3 families; blue: family 1, green: family 3, grey: family 10.
To further narrow down which specific residues might play a role, single residues of human FRα in the chimera 4 region that are not conserved between FRα and FRβ were mutated to their human FRβ counterpart. While all VHHs retained binding to human FRα E140Q SEQ ID No. 77), R147H ^{∘}SEQ ID No. 79), and Y150H ^{∘}SEQ ID No. 80) ^{∘}data not shown), binding was completely abolished when the Q141R mutation ^{∘}SEQ ID No. 78) was introduced ^{∘}FIG. 2C). To verify the role of this residue in the binding of the VHHs, the R135 residue in human FRβ was replaced by glutamine ^{∘}SEQ ID No. 81) and binding of the VHHs was analyzed. […] In addition to having ^{∘}partially) overlapping epitopes, the VHHs thus all require residue Q141 for binding.

[3] = biological target: T3, mouse folate receptor alpha (mFRα), recombinant protein (mouse, UniProt P35846 25-232); experiment: BLI tandem binning on mouse FRα; competitor (1st association) 2MFR32
T3 construct: Bought recombinant proteins (e.g. biotinylated, Acro Biosystems FO1-M82E9); also called mFOLR1; Ms FOLR1
Excerpt: VHHs that share high sequence identity in the CDR3 region, a VHH family, are derived from the same B-cell lineage and diverged from each other due to somatic hypermutation or affinity maturation. Typically, VHHs from the same family recognize the same epitope on the target, but may differ in other characteristics ^{∘}De Genst et al 2006 PNAS 103:4586-4591; De Gents et al 2005 J Biol Chem 280:14114-14121). To study whether the VHHs from the different families bound different epitopes, epitope binning was performed using a tandem binding approach in BLI. One VHH from each family was allowed to bind to mouse FRα on the biosensor, followed by binding of the second VHH ^{∘}Table 4).
Competition between VHHs from different complementarity determining region ^{∘}CDR) 3 families was assessed in a tandem binding assay using biolayer interferometry ^{∘}BLI). Streptavidin biosensors were loaded with biotinylated mouse FRα ^{∘}Acro Biosystems, Cat.nr. FO1-M82E9), followed by binding of anti-FRα VHHs ^{∘}VHH in first association). The biosensors were then transferred to a solution containing a second VHH mixed 1:1 with the first VHH ^{∘}VHH in second association). Using the FortéBio Data Analysis Software the absolute additional binding signal for the second association on top of the first association was calculated. The data were normalized per VHH in first association using the following formula: ^{∘}signal-self)/^{∘}maximum-self) with self being the value of the VHH in first association in combination with the same VHH in second association.

[4] = biological target: T3, mouse folate receptor alpha (mFRα), …; experiment: BLI, periplasmic extract, FRα on AR2G biosensors
Experimental: (§2) After panning of core76/77 on human and mouse folate receptor alpha ^{∘}FRα), […] were randomly selected from the second and third rounds and analyzed by ELISA on both human and mouse FRα for the presence of FRα-specific VHHs in their periplasmic extracts ^{∘}PE). This led to the identification of 98 hits. For these 98 hits, the off-rate ^{∘}koff) in the PE was determined by biolayer interferometry ^{∘}BLI) on both mouse and human FRα that was directly immobilized onto AR2G biosensors. The off-rates were calculated using a 1:1 binding model. […] Abbreviations: SE: standard error.

[5] = biological target: T4, human folate receptor alpha (hFRα), recombinant protein (human, UniProt P15328 25-233); experiment: BLI, periplasmic extract, FRα on AR2G biosensors
T4 construct: Bought recombinant proteins (His-tagged, or biotinylated via Avi-tag, e.g. AcroBiosystems FO1-H82E2, F01-H52H1); also called hFOLR1; huFOLR1
Experimental: as §2

[6] = biological target: T5, mouse folate receptor alpha expressed on transfected HEK293T cells (mouse, UniProt P35846 25-232); experiment: flow cytometry on HEK293T cells overexpressing mouse FOLR1, His tag detection, PE MFI, non-linear fit
T5 construct: also called cell-expressed mouse FRα
Experimental: as §1

T4 sequence (P15328 25-233 limits assumed): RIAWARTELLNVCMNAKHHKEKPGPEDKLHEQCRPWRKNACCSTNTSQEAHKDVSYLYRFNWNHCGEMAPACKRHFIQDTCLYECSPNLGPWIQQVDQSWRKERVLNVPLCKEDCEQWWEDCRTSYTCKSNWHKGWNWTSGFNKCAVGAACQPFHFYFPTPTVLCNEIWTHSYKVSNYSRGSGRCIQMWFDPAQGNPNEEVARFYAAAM
T3 sequence (P35846 25-232 limits assumed): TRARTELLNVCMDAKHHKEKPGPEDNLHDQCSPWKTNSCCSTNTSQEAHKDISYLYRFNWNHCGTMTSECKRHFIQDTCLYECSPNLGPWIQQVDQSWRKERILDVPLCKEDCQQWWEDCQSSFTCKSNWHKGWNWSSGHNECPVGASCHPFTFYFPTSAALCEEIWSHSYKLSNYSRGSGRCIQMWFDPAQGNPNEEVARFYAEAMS
T5 sequence (P35846 25-232 limits assumed): as above
T1 sequence (P15328 25-234 limits assumed): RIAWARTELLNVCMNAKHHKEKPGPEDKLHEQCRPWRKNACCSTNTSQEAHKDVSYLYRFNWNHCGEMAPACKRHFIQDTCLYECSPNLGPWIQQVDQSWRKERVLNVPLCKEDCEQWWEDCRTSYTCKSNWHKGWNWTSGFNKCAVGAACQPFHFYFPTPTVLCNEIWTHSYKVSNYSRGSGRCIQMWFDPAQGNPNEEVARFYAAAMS
T2 sequence (P14207 17-230 R135Q limits assumed): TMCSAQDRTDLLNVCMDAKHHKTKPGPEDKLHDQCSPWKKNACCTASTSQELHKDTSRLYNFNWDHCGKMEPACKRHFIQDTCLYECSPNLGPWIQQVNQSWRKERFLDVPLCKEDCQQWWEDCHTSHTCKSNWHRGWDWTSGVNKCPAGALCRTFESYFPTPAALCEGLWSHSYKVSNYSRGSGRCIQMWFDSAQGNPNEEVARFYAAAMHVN

Row | EC50 [1] | binding result [2] | normalized additional binding in 2nd association [3] | koff [4] | koff [5] | EC50 [6] | Binder
1 | 26.4 nM | binds | 41% | 0.00881 s⁻¹ | 0.0266 s⁻¹ | 1.2 nM | VHH 2HFO42 (family 3) (VHH, also called 2HF042; Nb42) VHH: QVQLQESGGGLVQAGGSLRLSCAASGSGFSGMIMGWYRQVPGKQRELVATVTSHGTTNYADSVKGRFTISRDNAKNTVLLQMNSLKPEDTAVYYCNAHFPGIYWGKGTQVTVSS
2 | 4.5 nM | binds | 100% | 0.00279 s⁻¹ | 0.013 s⁻¹ | 1.4 nM | VHH 2HFO19 (family 1) (VHH, also called Nb19) VHH: QVQLQESGGGLVQPGGSLRVSCAASGFPFSTVYMSWVRQAPGKGLEWVSGINNDGGVIDYADSVKGRFTISRDNAKNTLYLQLNSLKPEDTALYFCARGRSFVATLSSSLRGQGTQVTVSS
3 | 10.1 nM | binds | 75% | 0.00287 s⁻¹ | 0.0449 s⁻¹ | 1.5 nM | VHH 3MFR60 (family 10) (VHH) VHH: QVQLQESGGGLVQAGGSLRVSCAASGIIFSMNGMGWFRQAPGKQRELVASITSGGSTKYADSVKGRFTISRDNAKNTVYLQMNSLKPEDTAVYYCNIQFGSRWSTYWGQGTQVTVSS

— patent US20250304677A1 (VIB VZW, published 2025)
